In article PMC9468151, “Identification of a binding site on soluble RANKL that can be targeted to inhibit soluble RANK-RANKL interactions and treat osteoporosis” (Nature Communications, 2022):
Values joined by “and” are separate entries in the source; they are usually repeats but may differ in a detail not shown here. Equal values may be shown once.

B1: H226A: single-point mutated rat sRANKL (protein, UniProt Q9ESE2 69-318, looked up, variant H226A)
extracellular domain: LYFRAQMDPNRISEDSTRCFYRILRLRENTGLQDSTLESEDTEALPDSCRRMKQAFQGAVQRELQHIVGPQRFSGVPAMMEGSWLDVARRGKPEAQPFAHLTINAADIPSGSHKVSLSSWYHDRGWAKISNMTLSNGKLRVNQDGFYYLYANICFRHAETSGSVPADYLQLMVYVVKTSIKIPSSHNLMKGGSTKNWSGNSEFHFYSINVGGFFKLRAGEEISVQVSNPSLLDPDQDATYFGAFKVQDID
modifications: extracellular domain
notes: single-point mutated rat sRANKL
B2: K283A (protein, UniProt Q9ESE2 69-318, looked up, variant K283A)
extracellular domain: LYFRAQMDPNRISEDSTRCFYRILRLRENTGLQDSTLESEDTEALPDSCRRMKQAFQGAVQRELQHIVGPQRFSGVPAMMEGSWLDVARRGKPEAQPFAHLTINAADIPSGSHKVSLSSWYHDRGWAKISNMTLSNGKLRVNQDGFYYLYANICFRHHETSGSVPADYLQLMVYVVKTSIKIPSSHNLMKGGSTKNWSGNSEFHFYSINVGGFFALRAGEEISVQVSNPSLLDPDQDATYFGAFKVQDID
modifications: extracellular domain
B3: Q238A: single-point mutated rat sRANKL (protein, UniProt Q9ESE2 69-318, looked up, variant Q238A)
extracellular domain: LYFRAQMDPNRISEDSTRCFYRILRLRENTGLQDSTLESEDTEALPDSCRRMKQAFQGAVQRELQHIVGPQRFSGVPAMMEGSWLDVARRGKPEAQPFAHLTINAADIPSGSHKVSLSSWYHDRGWAKISNMTLSNGKLRVNQDGFYYLYANICFRHHETSGSVPADYLALMVYVVKTSIKIPSSHNLMKGGSTKNWSGNSEFHFYSINVGGFFKLRAGEEISVQVSNPSLLDPDQDATYFGAFKVQDID
modifications: extracellular domain
notes: as for B1
B4: E270A: single-point mutated rat sRANKL (protein)
chain: KPEAQPFAHLTINAADIPSGSHKVSLSSWYHDRGWAKISNMTLSNGKLRVNQDGFYYLYANICFRHHETSGSVPADYLQLMVYVVKTSIKIPSSHNLMKGGSTKNWSGNSAFHFYSINVGGFFKLRAGEEISVQVSNPSLLDPDQDATYFGAFKVQDID
modifications: left off: His6, N-terminal, cleaved | SUMO, N-terminal, cleaved
notes: as for B1
B5: E227A: single-point mutated rat sRANKL (protein)
chain: KPEAQPFAHLTINAADIPSGSHKVSLSSWYHDRGWAKISNMTLSNGKLRVNQDGFYYLYANICFRHHATSGSVPADYLQLMVYVVKTSIKIPSSHNLMKGGSTKNWSGNSEFHFYSINVGGFFKLRAGEEISVQVSNPSLLDPDQDATYFGAFKVQDID
modifications: left off: His6, N-terminal, cleaved | SUMO, N-terminal, cleaved
notes: as for B1
B6: Y242A: single-point mutated rat sRANKL (protein)
chain: KPEAQPFAHLTINAADIPSGSHKVSLSSWYHDRGWAKISNMTLSNGKLRVNQDGFYYLYANICFRHHETSGSVPADYLQLMVAVVKTSIKIPSSHNLMKGGSTKNWSGNSEFHFYSINVGGFFKLRAGEEISVQVSNPSLLDPDQDATYFGAFKVQDID
modifications: left off: His6, N-terminal, cleaved | SUMO, N-terminal, cleaved
notes: as for B1
B7: WT: wild type recombinant rat sRANKL (protein)
chain: KPEAQPFAHLTINAADIPSGSHKVSLSSWYHDRGWAKISNMTLSNGKLRVNQDGFYYLYANICFRHHETSGSVPADYLQLMVYVVKTSIKIPSSHNLMKGGSTKNWSGNSEFHFYSINVGGFFKLRAGEEISVQVSNPSLLDPDQDATYFGAFKVQDID
modifications: left off: His6, N-terminal, cleaved | SUMO, N-terminal, cleaved
notes: wild type recombinant rat sRANKL
B8: D301A: single-point mutated rat sRANKL (protein)
chain: KPEAQPFAHLTINAADIPSGSHKVSLSSWYHDRGWAKISNMTLSNGKLRVNQDGFYYLYANICFRHHETSGSVPADYLQLMVYVVKTSIKIPSSHNLMKGGSTKNWSGNSEFHFYSINVGGFFKLRAGEEISVQVSNPSLLAPDQDATYFGAFKVQDID
modifications: left off: His6, N-terminal, cleaved | SUMO, N-terminal, cleaved
notes: as for B1
B9: K182A: single-point mutated rat sRANKL (protein)
chain: KPEAQPFAHLTINAADIPSGSHAVSLSSWYHDRGWAKISNMTLSNGKLRVNQDGFYYLYANICFRHHETSGSVPADYLQLMVYVVKTSIKIPSSHNLMKGGSTKNWSGNSEFHFYSINVGGFFKLRAGEEISVQVSNPSLLDPDQDATYFGAFKVQDID
modifications: left off: His6, N-terminal, cleaved | SUMO, N-terminal, cleaved
notes: as for B1
B10: D303A: single-point mutated rat sRANKL (protein)
chain: KPEAQPFAHLTINAADIPSGSHKVSLSSWYHDRGWAKISNMTLSNGKLRVNQDGFYYLYANICFRHHETSGSVPADYLQLMVYVVKTSIKIPSSHNLMKGGSTKNWSGNSEFHFYSINVGGFFKLRAGEEISVQVSNPSLLDPAQDATYFGAFKVQDID
modifications: left off: His6, N-terminal, cleaved | SUMO, N-terminal, cleaved
notes: as for B1
B11: R224A: single-point mutated rat sRANKL (protein)
chain: KPEAQPFAHLTINAADIPSGSHKVSLSSWYHDRGWAKISNMTLSNGKLRVNQDGFYYLYANICFAHHETSGSVPADYLQLMVYVVKTSIKIPSSHNLMKGGSTKNWSGNSEFHFYSINVGGFFKLRAGEEISVQVSNPSLLDPDQDATYFGAFKVQDID
modifications: left off: His6, N-terminal, cleaved | SUMO, N-terminal, cleaved
notes: as for B1

Tested on: BMM cells
Experiment: Osteoclastogenic assay of WT, single-point mutated sRANKL and L-RANKL
Type: cell-based, mouse
Conditions: for number of osteoclasts (fig. 1f): BMMs, M-CSF 10 ng/mL; for osteoclast formation (fig. S4a): three replicates
Protocol: Fig. 1 Evidence for selective sRANKL inhibition binding site identification. a Proposed small molecule binding site that can be used to distinguish sRANKL from mRANKL. b he probabilities that distances of residue pairs greater than 1.8 Å in sRANKL (red) and mRANKL (blue). The data are calculated based on conformation trajectories from 100 ns MD simulations on sRANKL and mRANKL. c SDRP frequency in sRANKL and mRANKL. d, e The distance of Y236-D303 and K182-R224 in sRANKL and mRANKL after MD simulation. f, g and h Osteoclastogenesis function of single-point mutated rat sRANKL and WT sRANKL. Representative TRAP staining images from one well each, with triplicate repeats wells of BMM cells isolated from C57BL/6 mice cultured with colony-stimulating factor 1 (M-CSF (10 ng/mL) and either varying WT sRANKL or mutated sRANKL (25–200 ng/mL). The number of osteoclasts counted in the osteoclastogenesis assay with mutated sRANKL. Data were presented as group mean ± s.d., n = 3 biological replicates.
Mouse osteoclasts were cultured according to the previously reported protocols. BMMs were plated in 96-well plates at a density of 6 × 10^3 cells/well with complete medium containing 10 ng/mL M-CSF. The following day, cells were then stimulated with 100 ng/mL sRANKL in the presence or absence of compounds with different concentrations every 2 days until osteoclasts formed. In order to calculate IC50, we set 9 concentrations for each compound and untreated and non-sRANKL unstimulating group as controls, each with triplicated repeated wells. After 5 days, cells were fixed with 4% paraformaldehyde and then applied TRAP-staining to identify osteoclasts by using the TRAP-staining kit. Osteoclasts number (OC No.) in each well was counted and the percentage of inhibition ratio was calculated as follows:1 OCinhibitoryratio%=100−OCNo.treated−OCNo.unstimulating/OCNo.untreated−OCNo.unstimulating×100%
GST-sRANKL was expressed and purified following a previously reported protocol. Rat sRANKL (aa160–318) cDNA was cloned into the bacterial expression vectors pGEX-3X and pGEX-2T with purification GST tag and resultant plasmid named p3rRANKL1. Label-free sRANKL protein in this study was obtained by removing His6-sumo tag from fusion protein His6-sumo-sRANKL. The DNA sequence encoding sRNAKL was inserted downstream the His6-sumo tag of a modified pET20b (+) plasmid. Single point mutations of sRANKL (K182A, R192A, W194A, R224A, H226A, E227A, Q238A, Y242A, H254A, N255A, E270A, K283A, D301A, D303A, or D305A) were constructed by PCR amplification using primer pairs to introduce the designed mutations to pET20b-His6-sumo-sRANKL recombinant plasmid. L-RANKL (binary-RANKL) plasmid was constructed as follow: the consecutive DNA sequence sequentially encoding His6-sumo tag and two sRANKL monomers was cloned into pET20b by PCR amplification using primer pairs to introduce the following restriction enzyme sites to the coding sequences: Nde I-His6-sumo-sRANKL-Bam HI and Bam HI-sRNAKL-Xho I. Each PCR product was double digested with the appropriate restriction enzymes (Thermo) and ligated to the pET20b vector between the Nde I and Xho I sites. Gly-Ser-Gly-Ser was designed to link the two monomers. After confirmed by sequence analysis, the recombinant plasmids were transformed into Escherichia coli BL21 (DE3) cells. The transformed cells were grown in LB media till OD600 about 0.6, then 0.15 mM IPTG was added to induce protein overexpression for 16 h at 20 °C.

Molecule	number of osteoclasts (fig. 1f) (sRANKL protein 25 ng/mL)	number of osteoclasts (fig. 1f) (sRANKL protein 50 ng/mL)	number of osteoclasts (fig. 1f) (sRANKL protein 100 ng/mL)	number of osteoclasts (fig. 1f) (sRANKL protein 200 ng/mL)	osteoclast formation (fig. S4a) (25 ng/mL)	osteoclast formation (fig. S4a) (50 ng/mL)	osteoclast formation (fig. S4a) (100 ng/mL)	osteoclast formation (fig. S4a) (200 ng/mL)	osteoclastogenesis activity, osteoclast number (fig. S3a source data) (L-RANKL vs WT sRANKL, listed as WT-RANKL)
B1	0	0	0	0					
B2					4 (2×) and 8	11	15 and 19 and 17	23 and 19 and 24	
B3	218 and 174 and 207	153 and 140 and 132	166 and 142 and 153	155 and 163 and 151					
B4	0	0	0	0					
B5	0	0	0	0					
B6		1 and 2	5 and 7	12 and 14 and 11					
B7	53 and 61 and 57	118 and 103 and 116	198 and 201 and 205	198 and 201 and 205	53 and 61 and 57	118 and 103 and 116	201 and 205	201 and 205	341 and 355 and 358
B8	0	0	0	0					
B9	0	0	0	0					
B10	0	0	0	0					
B11	0	0	0	0					
